Laboratory results published in publication doi:10.1101/555623.

Assays:
[1] = biological target: BRCA1 tBRCT L1701K mutant (human) (UniProt P38398); test: MST
[2] = biological target: BRCA1 tBRCT F1662R mutant (human) (UniProt P38398); test: MST

In the case of BACH1 phosphopeptide, the Kd [1] is reported as 1960 nM and the Kd [2] is reported as 860 nM.
